Here are results for 2 molecules from article PMC4333382, “RNA helicase A activity is inhibited by oncogenic transcription factor EWS-FLI1” (Nucleic Acids Research, 2015).

Data set [1] addresses T1, EWS-FLI1 (UniProt F1JVV7).
T1 chain: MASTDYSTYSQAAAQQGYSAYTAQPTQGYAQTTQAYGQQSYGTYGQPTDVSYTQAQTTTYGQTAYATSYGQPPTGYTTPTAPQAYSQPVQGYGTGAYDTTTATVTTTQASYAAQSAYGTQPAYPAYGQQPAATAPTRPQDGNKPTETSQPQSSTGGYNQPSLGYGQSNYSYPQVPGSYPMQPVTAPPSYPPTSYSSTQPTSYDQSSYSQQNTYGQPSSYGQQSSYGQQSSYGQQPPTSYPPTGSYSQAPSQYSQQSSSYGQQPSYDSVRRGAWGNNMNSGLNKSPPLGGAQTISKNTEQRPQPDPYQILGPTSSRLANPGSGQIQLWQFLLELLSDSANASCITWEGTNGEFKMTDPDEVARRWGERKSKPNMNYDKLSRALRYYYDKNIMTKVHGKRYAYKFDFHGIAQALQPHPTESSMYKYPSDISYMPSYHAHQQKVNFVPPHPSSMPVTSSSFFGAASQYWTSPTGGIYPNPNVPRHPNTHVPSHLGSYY
Put plainly: competition; 30 nM EWS-FLI1, competes with 32P HDV RNA (N1?); EMSA: 25 mM HEPES pH 7.4, 80 mM NaCl, 2 mM MgCl2, 2 mM DTT, Superase In, 5 pmol 32P-RNA, 10 min room temperature, 6% native PAGE 0.5x TBE; AFM: 25 mM HEPES pH 7.4, 2 mM MgCl2, 1 mM TCEP, 25 C, 1 min. The note with it: protein: recombinant; blunt.

The target in data set [2] is T1, EWS-FLI1. The data set is described as above. To be noted: protein: recombinant; blunt.

B1: mut ets-DNA (GGAA to GCTA) (dsDNA)
DNA 1: ATGTAGACCGCTAGTAACTA
DNA 2: TAGTTACTAGCGGTCTACAT
In the case of B1, the binding signal with EWS-FLI1 [1] is 30 % of wild-type efficiency at displacing RNA.

B2: wt ets-DNA (dsDNA)
DNA 1: ATGTAGACCGGAAGTAACTA
DNA 2: TAGTTACTTCCGGTCTACAT
Take B2: the binding result in the data set with EWS-FLI1 [2] is “binds”.
